From paper PMC10514967, “The terpene synthase (TPS) gene family in kiwifruit shows high functional redundancy and a subset of TPS likely fulfil overlapping functions in fruit flavour, floral bouquet and defence” (Molecular Horticulture, 2023) come the findings set out here.

The subject of one series is AcLIS/NES. Briefly: SPME GC-MS of major terpene product, Michaelis-Menten fit. The class given is biochemical, Actinidia chinensis var. chinensis. The conditions noted are these: 50 mM Bis-Tris propane pH 7.5, 10 mM MgCl2, 30 °C. The text has this:
SPME GC-MS of major terpene product, Michaelis-Menten fit on AcLIS/NES

Substrate in series [1]: CC(C)=CCC/C(C)=C/CC/C(C)=C/CO[P@@](=O)(O)OP(=O)(O)O
Described as above. The class given is biochemical, Actinidia chinensis. The conditions noted are these: 50 mM Bis-Tris propane pH 7.5, 10 mM MgCl2, 30 °C. From the text: SPME GC-MS of major terpene product, Michaelis-Menten fit on AcBCS

For `CC(C)=CCC/C(C)=C/CC/C(C)=C/COP(=O)(O)OP(=O)(O)O` [FDP], in the series with AcLIS/NES, the Km (commonly the substrate concentration at which the rate is half of its maximum) was 7.43 ± 1.25 µM.
In the case of `CC(C)=CCC/C(C)=C/COP(=O)(O)OP(=O)(O)O` [GDP], in the series on AcLIS/NES, the Km was 30.9 ± 3.81 µM.

B1: AcBCS (Actinidia chinensis var. chinensis) (protein)
chain: MAISCATALPIPTVSTKITMEPLVTRRSANYHPSIWGDHFLAYSSLPTEVDVNMEQEQLHQLKQKVIKMLMAAADKPSQMLNLIDRIQRLGVSYHFKTEIEAALKHIYESDHHFDDLYTVALFFRLLRQQGFPVSCEVFNKFKNNQGKFQECLIGDVVGILCLYEATHLRVRGEEILDEALSFTTTHLESMVPNLSNPVAEHAIHALNQPIHKGLTRLDARQYISFYEQDDSHNKDLLNFAKLDFNLLQKLHQRELCEITRWWKDLDFAKKLPFARDRLVESYFWVLGVYFEPQYWLARRILTKVIAMSSVIDDIYDVYGTLEELALFTDAIERWEISSLDKLPEYMKLCYQALLDIYSTIDEEMAKQGGSYRVYYAKSEMKNLVRGYFEEAKWFHQGYVPSMEEYMQVALLSSGYKMVTTTSFVGMGELATKEAFDWVSSYPLIVEAVSAIARLTDDIVGHKFEQQRGHVASAVECYMKQNGATEEEAIVELYEQVTNAWKDMNAECLYSTKVPMPLLVRVLNLARVINVLYKDEDSYTHSGTRTKNFVTSVLIDSVPIN
On to B1, for which, in series [1], the Km was 1.54 ± 0.54 µM; the Vmax (in general, the top rate of the reaction or transport when substrate is in excess) amounted to 0.013 µM/min; the catalytic constant (kcat) (as a rule, the number of substrate molecules converted per active site and unit of time at saturation) worked out at 0.0087 ± 0.002 s⁻¹; the kcat/Km (in general, the turnover number divided by the Michaelis constant) amounted to 5870 ± 1100 M⁻¹ s⁻¹.
